Molecular target: biotin-tagged amyloid-beta 42-amino acid (Aβ42) peptide, oligomer preparation
Assay: conclusion from the cell binding studies on transfected COS-7 cells

B1: full-length mouse PrP, cellular prion protein PrP^c (receptor)
chain: not shown
binding result: binds

— patent US9217036 (YALE UNIVERSITY, dated 2015)
